{"source": "patent US20170022553", "about": "“NUCLEIC ACID SEQUENCING METHODS AND SYSTEMS” (OMNIOME, INC., published 2017)", "binders": {"B1": {"name": "ALK C4493A/4496-4509AS primer-template (dsDNA)", "DNA 1": "GTGAGCCTGCAATCCCTGCCCCGGTTCATCCTGATGGAGCTCATGGCGGG", "DNA 2": "CCCGCCATGAGCTC", "modifications": "3' inverted dT on template"}, "B2": {"name": "ALK-G4 primer-template (dsDNA)", "DNA 1": "GTGAGCCTGCAATCCCTGCCCCGGTTCATCCTGCTGGAGCTCATGGCGGG", "DNA 2": "CCCGCCATGAGCTCCAGCAGGATGAACC", "modifications": "3' inverted dT on template"}, "B3": {"name": "ALK wild-type 4460-4509S/4496-4509AS primer-template (dsDNA)", "DNA 1": "GTGAGCCTGCAATCCCTGCCCCGGTTCATCCTGCTGGAGCTCATGGCGGG", "DNA 2": "CCCGCCATGAGCTC", "modifications": "3' inverted dT on template"}, "B4": {"name": "ALK-G1 primer-template (dsDNA)", "DNA 1": "GTGAGCCTGCAATCCCTGCCCCGGTTCATCCTGCTGGAGCTCATGGCGGG", "DNA 2": "CCCGCCATGAGCTCCA", "modifications": "3' inverted dT on template"}, "B5": {"name": "ALK-G2 primer-template (dsDNA)", "DNA 1": "GTGAGCCTGCAATCCCTGCCCCGGTTCATCCTGCTGGAGCTCATGGCGGG", "DNA 2": "CCCGCCATGAGCTCCAGCA", "modifications": "3' inverted dT on template"}}, "key": {"[1]": {"target": "T1, Bsu DNA polymerase I large fragment (Bacillus subtilis, UniProt O34996 O34996:297-880)", "T1 sequence (O34996 297-880, one chain of several)": "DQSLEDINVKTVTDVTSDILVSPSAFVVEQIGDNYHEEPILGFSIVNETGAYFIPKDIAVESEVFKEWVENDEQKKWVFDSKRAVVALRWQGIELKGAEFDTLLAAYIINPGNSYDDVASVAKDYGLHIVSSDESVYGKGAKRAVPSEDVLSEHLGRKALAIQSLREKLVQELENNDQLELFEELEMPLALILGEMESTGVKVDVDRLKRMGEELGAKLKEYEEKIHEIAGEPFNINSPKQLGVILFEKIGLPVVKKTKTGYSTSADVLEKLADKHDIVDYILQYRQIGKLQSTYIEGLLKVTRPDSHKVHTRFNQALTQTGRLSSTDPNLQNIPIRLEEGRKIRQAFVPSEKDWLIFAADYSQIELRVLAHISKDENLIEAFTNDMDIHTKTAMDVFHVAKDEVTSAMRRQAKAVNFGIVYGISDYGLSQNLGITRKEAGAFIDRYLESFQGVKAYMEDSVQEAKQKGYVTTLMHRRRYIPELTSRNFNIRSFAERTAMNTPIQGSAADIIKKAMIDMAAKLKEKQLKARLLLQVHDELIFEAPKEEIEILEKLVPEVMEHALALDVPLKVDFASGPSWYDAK", "assay": "BLI; correct dNTP, Ni(II), 200 mM KCl, 200 mM K glutamate, 30 C", "settings": "tags: New England Biolabs M0330L; label: 5' biotin on template; primed template with 5' template overhang", "experimental": "Primer-template duplex was diluted (100 nM) into Annealing Buffer. Wash buffer was 20 mM Tris, pH 8.0, 200 mM KCl, 200 mM potassium glutamate, 0.01% (v/v), Tween-20, 100 μg/mL bovine serum albumin, 1.0 mM dithiothreitol. Binding Buffer was Wash Buffer containing 2.0 mM Ni(II)SO₄. Reaction Buffer was 20 mM Tris, pH 8.0, 50 mM KCl, MgCl₂ (10 mM), 0.01% (v/v) Tween-20, 100 μg/mL bovine serum albumin, 1.0 mM dithiothreitol. EDTA Wash Buffer was Binding Buffer containing 1.0 mM EDTA. Buffer containing Primer-Template (PT), Binding buffer containing one dNTP and Reaction Buffer were loaded (200 μL/well) into a Greiner 96-well black microplate (Sigma-Aldrich, St. Louis, Mo.; catalog number M9685), and PCR-grade mineral oil (Sigma-Aldrich, St. Louis, Mo.; catalog no. M8662) was applied (75 μL/well). High-precision streptavidin biosensors (Pall ForteBio Corp., Menlo Park, Calif.; catalog number 18-5117) were re-hydrated in Annealing Buffer for approximately 10 minutes before use. The Octet QK biosensor system (Pall ForteBio Corp., Menlo Park, Calif.) was set for 30° C. operation and was programmed to coat the biosensors with Primer-Template and wash away unbound Primer-Template with Wash Buffer. […]"}, "[2]": {"target": "T1, Bsu DNA polymerase I large fragment", "assay": "BLI; dGTP, 1 mM Ni(II), 30 C; lower amplitude, higher kobs than ALK-G1", "settings": "tags: New England Biolabs M0330L; label: 5' biotin on template; primed template with 5' template overhang", "experimental": "(§1) Primer-template duplex was diluted (100 nM) into Annealing Buffer. Wash buffer was 30 mM Tris, pH 8.0, 160 mM KCl, 160 mM potassium glutamate, 0.01% (v/v), Tween-20, 100 μg/mL bovine serum albumin, 1.0 mM dithiothreitol. Binding Buffer was Wash Buffer containing Bsu Pol I (68 Unit/mL) 100 μM dGTP+1.0 mM Ni(II)SO₄. Reaction Buffer was Wash Buffer containing Bsu (1 U/mL), MgCl₂ (80 μM), dGTP (28.1 μM), α-S-dGTP (162 μM). EDTA Wash Buffer was Wash Buffer without Ni(II)SO₄ but containing 1.0 mM EDTA. Buffer containing Primer-Template (PT), Binding Buffer and Reaction Buffer containing were loaded (200 μL/well) into a Greiner 96-well black microplate (Sigma-Aldrich, St. Louis, Mo.; catalog number M9685), and PCR-grade mineral oil (Sigma-Aldrich, St. Louis, Mo.; catalog no. M8662) was applied (75 μL/well). […]\n(§2) In assays for binding to biosensor coated with ssDNA primer-template, Bsu Pol I enzyme bound strongly to the primer/template-coated biosensor in the presence of correct dGTP (FIGS. 18A and 18B). […] The association phase for formation of the ternary complex was analyzed for how the association kinetic parameters may be affected by the number of nucleotides for incorporation into the homopolymer of the primer/template."}, "[3]": {"target": "Bst DNA polymerase, full length (Bacillus stearothermophilus, UniProt P52026 P52026:1-876)", "sequence (P52026 whole entry, one chain of several)": "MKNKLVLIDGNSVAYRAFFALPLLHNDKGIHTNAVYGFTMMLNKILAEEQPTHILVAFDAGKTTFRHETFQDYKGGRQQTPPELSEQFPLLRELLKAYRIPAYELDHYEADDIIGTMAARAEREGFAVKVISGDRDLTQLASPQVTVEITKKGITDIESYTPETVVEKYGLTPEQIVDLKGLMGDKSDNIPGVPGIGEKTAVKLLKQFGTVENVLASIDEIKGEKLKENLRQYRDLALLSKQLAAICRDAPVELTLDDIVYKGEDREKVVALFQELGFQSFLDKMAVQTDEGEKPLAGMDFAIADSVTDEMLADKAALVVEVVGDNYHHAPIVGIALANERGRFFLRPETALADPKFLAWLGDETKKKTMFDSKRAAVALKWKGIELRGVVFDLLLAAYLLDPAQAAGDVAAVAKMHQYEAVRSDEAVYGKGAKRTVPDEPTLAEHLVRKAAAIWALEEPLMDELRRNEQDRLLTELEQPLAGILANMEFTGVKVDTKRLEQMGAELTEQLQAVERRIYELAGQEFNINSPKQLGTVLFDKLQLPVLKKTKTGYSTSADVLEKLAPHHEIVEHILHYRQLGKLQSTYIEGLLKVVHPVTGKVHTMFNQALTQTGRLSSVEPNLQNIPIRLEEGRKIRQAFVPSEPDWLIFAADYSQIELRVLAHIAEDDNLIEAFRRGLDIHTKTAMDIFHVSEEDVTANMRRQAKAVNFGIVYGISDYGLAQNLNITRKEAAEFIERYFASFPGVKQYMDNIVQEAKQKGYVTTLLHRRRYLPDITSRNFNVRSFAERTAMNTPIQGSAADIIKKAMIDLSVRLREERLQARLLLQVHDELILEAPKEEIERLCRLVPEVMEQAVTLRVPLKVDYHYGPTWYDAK", "assay": "BLI; correct dNTP, 300 mM KCl, 30 C; minimal binding without dNTP", "settings": "tags: New England Biolabs M0328L; label: 5' biotin on template; primed template with 5' template overhang", "experimental": "Primer-template duplex was diluted (100 μM) into Annealing Buffer. Binding buffer was 50 mM Tris, pH 8.0, 300 mM KCl, 0.1% (v/v) Triton-X100, 100 μg/mL bovine serum albumin. Reaction Buffer was Binding Buffer containing 10 mM MgCl₂. Buffer containing Primer-Template (PT), Binding buffer containing one dNTP, and Reaction Buffer were loaded (200 μL/well) into a Greiner 96-well black microplate (Sigma-Aldrich, St. Louis, Mo.; catalog number M9685), and PCR-grade mineral oil (Sigma-Aldrich, St. Louis, Mo.; catalog no. M8662) was applied (75 μL/well). Streptavidin (SA) Biosensors (Pall ForteBio Corp., Menlo Park, Calif.; catalog number 18-5019) were re-hydrated in Annealing Buffer for approximately 10 minutes before use. The Octet QK biosensor system (Pall ForteBio Corp., Menlo Park, Calif.) was set for 30° C. operation and was programmed to coat the biosensors with Primer-Template and wash away unbound Primer-Template with Binding Buffer. Biosensors were transferred to Binding Buffer containing 136 Unit/mL Bst DNA Polymerase and 200 μM dNTP (dATP, dTTP, dGTP or dCTP) as indicated (association phase) followed by Reaction Buffer for dNTP incorporation. Biosensors were transferred to Reaction Buffer containing Bst DNA Polymerase (136 Unit/mL) without dNTP to promote nick translation via 5′-3′ exonuclease activity. […]"}, "[4]": {"target": "T1, Bsu DNA polymerase I large fragment", "assay": "BLI; dGTP, 1 mM Ni(II), 30 C; highest amplitude", "settings": "tags: New England Biolabs M0330L; label: 5' biotin on template; primed template with 5' template overhang", "experimental": "as §1, §2"}}}
{"binder": "B1", "values": [{"measurement": "binding result", "setting": "[1]", "value": "binds"}]}
{"binder": "B2", "values": [{"measurement": "binding result", "setting": "[2]", "value": "binds"}]}
{"binder": "B3", "values": [{"measurement": "binding result", "setting": "[3]", "value": "binds"}]}
{"binder": "B4", "values": [{"measurement": "binding result", "setting": "[4]", "value": "binds"}]}
{"binder": "B5", "values": [{"measurement": "binding result", "setting": "[2]", "value": "binds"}]}
